The record followed here is paper PMC5501724, “Structural Basis for Specific Interaction of TGFβ Signaling Regulators SARA/Endofin with HD-PTP” (Structure(London, England:1993), 2017).

B1: HA-HD-PTP_(Bro1-CC) wild-type, expressed in cells [human] / endogenous endofin [human (endogenous in HEK293)] (parent complex)
chain 1: MEAVPRMPMIWLDLKEAGDFHFQPAVKKFVLKNYGENPEAYNEELKKLELLRQNAVRVPRDFEGCSVLRKYLGQLHYLQSRVPMGSGQEAAVPVTWTEIFSGKSVAHEDIKYEQACILYNLGALHSMLGAMDKRVSEEGMKVSCTHFQCAAGAFAYLREHFPQAYSVDMSRQILTLNVNLMLGQAQECLLEKSMLDNRKSFLVARISAQVVDYYKEACRALENPDTASLLGRIQKDWKKLVQMKIYYFAAVAHLHMGKQAEEQQKFGERVAYFQSALDKLNEAIKLAKGQPDTVQDALRFTMDVIGGKYNSAKKDNDFIYHEAVPALDTLQPVKGAPLVKPLPVNPTDPAVTGPDIFAKLVPMAAHEASSLYSEEKAKLLREMMAKIEDKNEVLDQFMDSMQLDPETVDNLDAYSHIPPQLMEKCAALSVRPDTVRNLVQSMQVLSGVFTDVEASLKDIRDLLEEDELLEQKFQEAVGQAGAISITSKAELAEVRREWAKYMEVHEKASFTNSELHRAMNLHVGNLRLLSGPLDQVRAALPTPALSPEDKAVLQNLKRILAKVQEMRDQRVSLEQQLRELIQKDDITASLVTTDHSEMKKLFEEQLKKYDQLKVYLEQNLAAQDRVLCALTEANVQYAAVRRVLSDLDQKWNSTLQTLVASYEAYEDLMKKSQEGRDFYADLESKVAALLERTQSTCQAREAARQQLLDRELKK
chain 2: MDSYFKAAVSDLDKLLDDFEQNPDEQDYLQDVQNAYDSNHCSVSSELASSQRTSLLPKDQECVNSCASSETSYGTNESSLNEKTLKGLTSIQNEKNVTGLDLLSSVDGGTSDEIQPLYMGRCSKPICDLISDMGNLVHATNSEEDIKKLLPDDFKSNADSLIGLDLSSVSDTPCVSSTDHDSDTVREQQNDISSELQNREIGGIKELGIKVDTTLSDSYNYSGTENLKDKKIFNQLESIVDFNMSSALTRQSSKMFHAKDKLQHKSQPCGLLKDVGLVKEEVDVAVITAAECLKEEGKTSALTCSLPKNEDLCLNDSNSRDENFKLPDFSFQEDKTVIKQSAQEDSKSLDLKDNDVIQDSSSALHVSSKDVPSSLSCLPASGSMCGSLIESKARGDFLPQHEHKDNIQDAVTIHEEIQNSVVLGGEPFKENDLLKQEKCKSILLQSLIEGMEDRKIDPDQTVIRAESLDGGDTSSTVVESQEGLSGTHVPESSDCCEGFINTFSSNDMDGQDLDYFNIDEGAKSGPLISDAELDAFLTEQYLQTTNIKSFEENVNDSKSQMNQIDMKGLDDGNINNIYFNAEAGAIGESHGINIICEIVDKQNTIENGLSLGEKSTIPVQQGLPTSKSEITNQLSVSDINSQSVGGARPKQLFSLPSRTRSSKDLNKPDVPDTIESEPSTADTVVPITCAIDSTADPQVSFNSNYIDIESNSEGGSSFVTANEDSVPENTCKEGLVLGQKQPTWVPDSEAPNCMNCQVKFTFTKRRHHCRACGKVFCGVCCNRKCKLQYLEKEARVCVVCYETISKAQAFERMMSPTGSNLKSNHSDECTTVQPPQENQTSSIPSPATLPVSALKQPGVEGLCSKEQKRVWFADGILPNGEVADTTKLSSGSKRCSEDFSPLSPDVPMTVNTVDHSHSTTVEKPNNETGDITRNEIIQSPISQVPSVEKLSMNTGNEGLPTSGSFTLDDDVFAETEEPSSPTGVLVNSNLPIASISDYRLLCDINKYVCNKISLLPNDEDSLPPLLVASGEKGSVPVVEEHPSHEQIILLLEGESFHPVTFVLNANLLVNVKFIFYSSDKYWYFSTNGLHGLGQAEIIILLLCLPNEDTIPKDIFRLFITIYKDALKGKYIENLDNITFTESFLSSKDHGGFLFITPTFQKLDDLSLPSNPFLCGILIQKLEIPWAKVFPMRLMLRLGAEYKAYPAPLTSIRGRKPLFGEIGHTIMNLLVDLRNYQYTLHNIDQLLIHMEMGKSCIKIPRKKYSDVMKVLNSSNEHVISIGASFSTEADSHLVCIQNDGIYETQANSATGHPRKVTGASFVVFNGALKTSSGFLAKSSIVEDGLMVQITPETMNGLRLALREQKDFKITCGKVDAVDLREYVDICWVDAEEKGNKGVISSVDGISLQGFPSEKIKLEADFETDEKIVKCTEVFYFLKDQDLSILSTSYQFAKEIAMACSAALCPHLKTLKSNGMNKIGLRVSIDTDMVEFQAGSEGQLLPQHYLNDLDSALIPVIHGGTSNSSLPLEIELVFFIIEHLF
B2: endofin_(1–84)-strep, in vitro translated [modified: 35S-methionine; 35S-methionine] [human] / His6-HD-PTP_(Bro1-CC) (1-714), bacterially expressed [human] (parent complex)
chain 1: MDSYFKAAVSDLDKLLDDFEQNPDEQDYLQDVQNAYDSNHCSVSSELASSQRTSLLPKDQECVNSCASSETSYGTNESSLNEKT
chain 2: B1 chain 1
B3: endofin 22-mer peptide (first 22 residues of endofin) [human] / His6-HD-PTP_(Bro1-CC) (1-714), bacterially expressed [human] (parent complex)
chain 1: MDSYFKAAVSDLDKLLDDFEQN
chain 2: B1 chain 1
B4: endofin 22-mer peptide (first 22 residues of endofin) [human] / His6-HD-PTP_(Bro1) (1-361) [human] (parent complex)
chain 1: MDSYFKAAVSDLDKLLDDFEQN
chain 2: MEAVPRMPMIWLDLKEAGDFHFQPAVKKFVLKNYGENPEAYNEELKKLELLRQNAVRVPRDFEGCSVLRKYLGQLHYLQSRVPMGSGQEAAVPVTWTEIFSGKSVAHEDIKYEQACILYNLGALHSMLGAMDKRVSEEGMKVSCTHFQCAAGAFAYLREHFPQAYSVDMSRQILTLNVNLMLGQAQECLLEKSMLDNRKSFLVARISAQVVDYYKEACRALENPDTASLLGRIQKDWKKLVQMKIYYFAAVAHLHMGKQAEEQQKFGERVAYFQSALDKLNEAIKLAKGQPDTVQDALRFTMDVIGGKYNSAKKDNDFIYHEAVPALDTLQPVKGAPLVKPLPVNPTDPAVTGPDIFAKLV

The variants in the first assay derive from B1. The experiment in a line: anti-HA immunoprecipitation from cells, anti-endofin immunoblot, quantitation; four independent experiments (mean ± SD); parent: 100; read off a plot. Background: Immunoblotting shows a protein as a band on a membrane.
With chain 1 T145K, the percent of parent was ~13 % of WT.
In the case of chain 1 F62E, the percent of parent was ~30 % of WT.
Same read-out and setting: the figure for chain 1 R198M is ~59 % of WT; for chain 1 R69L it is ~68 % of WT.
For the variant chain 1 L202D, the percent of parent was ~9.5 % of WT.
For the variant chain 1 H125A, the percent of parent is ~23 % of WT.

The variants in a further assay derive from B2. The experiment in a line: co-immunoprecipitation with anti-His6 antibody, quantitation of blots; three independent experiments (mean ± SD); parent: 100; read off a plot.
Turning to chain 1 L15P, the percent of parent was ~6 % binding (rel. to WT).

In the next assay the parent is B3. The experiment in a line: biosensor binding (sensogram); parent: 80; read off a plot.
For the variant chain 1 L15P, the response is approximately 0 RU.

In the next assay the parent is B4. The experiment in a line: biosensor binding (sensogram); parent: 110; read off a plot.
Turning to chain 1 L15P, the response is approximately 0 RU.
